Laboratory results from publication PMC10989685 (2024).

B1: IgSF21 (protein)
chain: YLTVNIEPLPPVVAGDAVTLKCNFKTDGRMREIVWYRVTDGGTIKQKIFTFDAMFSTNYSHMENYRKREDLVYQSTVRLPEVRISDNGPYECHVGIYDRATREKVVLASGNIFLNVMAPPTSIEVVAADSPAPFSRYQAQNFTLVCIVSGGKPAPMVYFKRDGEPIDAVPLTELPAASSGPVQDSRPFRSLLHRDVDDTKMQKSLSLLDTEYRAGRPYTERPARSLTQDPSLFVQPTTENIPETVVSREFPRWVHSAEPVYFLRHSRTPGSDGTVEVRALLTWTLNPQIDNEALFSCEVKHPALSMPMQAEVTLVAPKGPKIMMTPSRARVGDTVRILVHGFQNEVFPEPMFTWTRVGSRLLDGSAEFDGKELVLERVPAELNGSMYRCTAQNPLGSTDTHTRLIVFENPNIPRGTEDSRGSASGPAGVRLTLVLALTVILELT
B2: Recombinant human Fc-tagged NRXN2α (human Nrxn2α-Fc, R&D Systems #6636-NX) (Fc fusion)
chain: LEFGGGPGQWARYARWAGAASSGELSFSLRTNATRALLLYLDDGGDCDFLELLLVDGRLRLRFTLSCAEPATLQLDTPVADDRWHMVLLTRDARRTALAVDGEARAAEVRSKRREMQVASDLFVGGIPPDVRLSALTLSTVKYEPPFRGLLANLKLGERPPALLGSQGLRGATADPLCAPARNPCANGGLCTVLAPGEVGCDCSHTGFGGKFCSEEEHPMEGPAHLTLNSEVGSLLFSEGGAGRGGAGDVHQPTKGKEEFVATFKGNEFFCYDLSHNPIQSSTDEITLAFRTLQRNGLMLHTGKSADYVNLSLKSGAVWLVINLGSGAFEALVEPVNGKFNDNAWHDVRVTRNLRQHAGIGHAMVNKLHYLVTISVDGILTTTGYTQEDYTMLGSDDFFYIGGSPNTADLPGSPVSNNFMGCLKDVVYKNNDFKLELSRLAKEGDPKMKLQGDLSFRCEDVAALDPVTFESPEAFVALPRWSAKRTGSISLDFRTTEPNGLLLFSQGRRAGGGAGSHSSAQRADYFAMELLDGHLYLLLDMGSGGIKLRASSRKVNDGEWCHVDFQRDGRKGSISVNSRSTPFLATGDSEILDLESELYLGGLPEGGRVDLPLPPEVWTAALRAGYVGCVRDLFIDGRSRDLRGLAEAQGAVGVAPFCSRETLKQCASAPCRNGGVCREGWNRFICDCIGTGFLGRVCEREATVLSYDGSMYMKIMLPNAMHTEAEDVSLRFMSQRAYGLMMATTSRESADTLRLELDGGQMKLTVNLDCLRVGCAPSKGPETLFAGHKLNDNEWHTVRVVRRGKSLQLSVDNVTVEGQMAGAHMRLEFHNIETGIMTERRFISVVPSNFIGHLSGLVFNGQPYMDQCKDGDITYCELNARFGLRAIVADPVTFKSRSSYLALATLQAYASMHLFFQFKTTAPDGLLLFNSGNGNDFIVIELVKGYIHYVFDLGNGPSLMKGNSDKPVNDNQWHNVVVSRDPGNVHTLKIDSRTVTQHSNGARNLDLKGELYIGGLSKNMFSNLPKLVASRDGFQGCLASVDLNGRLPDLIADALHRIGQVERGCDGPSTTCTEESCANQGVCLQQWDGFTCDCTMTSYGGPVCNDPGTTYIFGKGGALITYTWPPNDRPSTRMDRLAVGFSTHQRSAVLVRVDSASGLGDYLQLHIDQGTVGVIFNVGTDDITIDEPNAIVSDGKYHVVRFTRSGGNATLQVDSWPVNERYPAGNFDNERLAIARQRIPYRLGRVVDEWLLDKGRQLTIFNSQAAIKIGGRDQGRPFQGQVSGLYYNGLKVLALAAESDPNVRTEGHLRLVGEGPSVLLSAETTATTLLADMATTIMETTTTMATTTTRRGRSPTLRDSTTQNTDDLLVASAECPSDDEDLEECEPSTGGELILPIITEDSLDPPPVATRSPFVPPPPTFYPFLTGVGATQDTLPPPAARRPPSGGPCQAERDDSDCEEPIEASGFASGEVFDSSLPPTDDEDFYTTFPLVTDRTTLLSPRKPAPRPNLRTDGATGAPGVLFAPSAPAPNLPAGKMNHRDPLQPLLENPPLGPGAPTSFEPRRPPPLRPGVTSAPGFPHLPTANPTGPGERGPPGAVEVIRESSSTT

Assays:
Neurexin2α = Neurexin2α (UniProt E9Q7X7); experiment: SPR
Chain of Neurexin2α (E9Q7X7 29-1634): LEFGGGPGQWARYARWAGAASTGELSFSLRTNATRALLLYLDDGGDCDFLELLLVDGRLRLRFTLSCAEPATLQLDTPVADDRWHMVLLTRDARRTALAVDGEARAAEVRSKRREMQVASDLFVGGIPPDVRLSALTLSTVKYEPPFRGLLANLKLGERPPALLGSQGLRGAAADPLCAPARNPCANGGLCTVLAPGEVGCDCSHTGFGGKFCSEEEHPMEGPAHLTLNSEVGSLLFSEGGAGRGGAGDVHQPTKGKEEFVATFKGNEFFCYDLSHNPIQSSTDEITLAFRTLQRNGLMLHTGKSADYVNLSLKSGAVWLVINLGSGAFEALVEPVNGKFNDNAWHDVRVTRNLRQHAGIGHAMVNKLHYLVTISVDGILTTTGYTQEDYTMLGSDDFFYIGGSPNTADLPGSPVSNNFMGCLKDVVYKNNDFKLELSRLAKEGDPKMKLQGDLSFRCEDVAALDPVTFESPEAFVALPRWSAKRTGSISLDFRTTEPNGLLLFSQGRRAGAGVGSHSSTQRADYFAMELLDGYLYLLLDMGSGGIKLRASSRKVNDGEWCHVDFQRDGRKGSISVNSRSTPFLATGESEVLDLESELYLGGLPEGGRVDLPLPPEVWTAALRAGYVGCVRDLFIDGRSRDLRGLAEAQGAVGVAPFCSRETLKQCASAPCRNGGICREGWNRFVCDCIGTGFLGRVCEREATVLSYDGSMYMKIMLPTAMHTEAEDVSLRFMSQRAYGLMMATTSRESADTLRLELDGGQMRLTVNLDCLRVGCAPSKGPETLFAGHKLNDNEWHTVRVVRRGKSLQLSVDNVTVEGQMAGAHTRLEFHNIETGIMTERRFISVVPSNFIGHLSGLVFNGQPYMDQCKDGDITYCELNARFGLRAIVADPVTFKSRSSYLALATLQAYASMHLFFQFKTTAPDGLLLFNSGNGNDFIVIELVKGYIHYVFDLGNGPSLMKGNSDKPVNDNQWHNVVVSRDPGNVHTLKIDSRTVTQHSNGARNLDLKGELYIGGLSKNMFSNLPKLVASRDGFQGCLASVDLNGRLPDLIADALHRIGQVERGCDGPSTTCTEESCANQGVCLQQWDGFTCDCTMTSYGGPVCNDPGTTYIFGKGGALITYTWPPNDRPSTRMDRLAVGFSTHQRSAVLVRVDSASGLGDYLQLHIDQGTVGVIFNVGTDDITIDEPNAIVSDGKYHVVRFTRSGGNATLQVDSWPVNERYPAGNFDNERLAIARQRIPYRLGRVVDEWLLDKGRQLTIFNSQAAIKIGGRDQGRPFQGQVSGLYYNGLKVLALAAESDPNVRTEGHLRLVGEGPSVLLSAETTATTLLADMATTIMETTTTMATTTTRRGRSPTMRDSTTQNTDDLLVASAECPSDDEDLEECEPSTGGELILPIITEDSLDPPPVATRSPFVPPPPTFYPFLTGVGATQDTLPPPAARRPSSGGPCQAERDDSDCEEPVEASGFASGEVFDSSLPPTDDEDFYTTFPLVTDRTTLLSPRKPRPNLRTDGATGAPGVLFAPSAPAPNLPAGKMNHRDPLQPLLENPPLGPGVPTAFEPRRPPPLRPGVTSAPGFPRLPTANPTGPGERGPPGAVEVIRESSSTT

[1] = biological target: Recombinant human His-tagged IgSF21 protein (R&D Systems #10330-S2) (human, UniProt Q96ID5 25-444); experiment: SPR

Binder	Kd (Neurexin2α)	koff [1]
B1	5.67 nM	–
B2	–	0.00101 s⁻¹
